These results are taken from patent EP0659766A1.

The test has as its target T1, IL-1 receptors expressed on murine thymoma EL4 cells (murine) (UniProt P13504).
T1 sequence (looked up): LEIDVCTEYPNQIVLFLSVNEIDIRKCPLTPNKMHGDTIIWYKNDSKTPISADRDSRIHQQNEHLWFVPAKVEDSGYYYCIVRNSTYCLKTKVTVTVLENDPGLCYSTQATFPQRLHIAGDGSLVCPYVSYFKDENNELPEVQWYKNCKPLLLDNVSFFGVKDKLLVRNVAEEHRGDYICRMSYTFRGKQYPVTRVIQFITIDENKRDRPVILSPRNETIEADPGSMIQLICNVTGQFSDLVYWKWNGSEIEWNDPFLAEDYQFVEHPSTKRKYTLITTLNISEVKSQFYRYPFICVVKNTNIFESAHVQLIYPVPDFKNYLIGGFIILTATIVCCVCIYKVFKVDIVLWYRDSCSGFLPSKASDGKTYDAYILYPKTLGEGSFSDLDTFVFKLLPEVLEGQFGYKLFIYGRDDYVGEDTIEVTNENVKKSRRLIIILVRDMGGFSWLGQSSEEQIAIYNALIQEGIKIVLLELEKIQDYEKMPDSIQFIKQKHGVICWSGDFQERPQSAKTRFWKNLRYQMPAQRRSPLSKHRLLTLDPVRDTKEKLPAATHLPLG
Description: binding of 70 pM human ¹²⁵I-IL-1α to 1 x 10⁶ EL4 cells, no serum.

B1: recombinant human IL-1 alpha (IL-1α) (ligand, UniProt P01583 113-271, looked up)
chain: SAPFSFLSNVKYNFMRIIKYEFILNDALNQSIIRANDQYLTAAALHNLDEAVKFDMGAYKSSKDDAKITVILRISKTQLYVTAQDEDQPVLLKEMPEIPKTITGSETNLLFFWETHGTKNYFTSVAHPNLFIATKQDYWVCLAGGPPSITDFQILENQA
As for B1, the ¹²⁵I-IL-1α bound to EL4 cells (cpm) is 4520 cpm.
